B1: Pistol ribozyme (parent)
chain: GGGUCGUUGUUCCAUAAUCGCGUGGAUAUGGCACGCAAGUUUCUACCGGGCACCGUAAAUGUCCGACUGGAGCCGUUCGGGCGGCUAUAAACAGACCUCAGGCCCGAAGCGUGGCGGCACCUGCCGCCGGUGGUAAAAAAGAUCGGAAGAGCACACGUCU

Variants of: B1
Experiment: aptazyme ON/OFF ratio, guanine; higher = stronger switching; co-transcriptional cleavage with and without guanine

Row | Variant | aptazyme ON/OFF ratio
1 | GGGUCGAAAUUUGAUAAUCGCGUGGAUAUGGCACGCAAGUUUCUACCGGGCACCGUAAAUGUCCGACUGGAGCCGUUCGGGCGGCUAUAAACAGACCUCAGGCCCGAAGCGUGGCGGCACCUGCCGCCGGUGGUAAAAAAGAUCGGAAGAGCACACGUCU | 1.12
2 | GGGUCGAAAUUUAAUAAUCGCGUGGAUAUGGCACGCAAGUUUCUACCGGGCACCGUAAAUGUCCGACUGGAGCCGUUCGGGCGGCUAUAAACAGACCUCAGGCCCGAAGCGUGGCGGCACCUGCCGCCGGUGGUAAAAAAGAUCGGAAGAGCACACGUCU | 1.11
3 | GGGUCGAAGUUGGAUAAUCGCGUGGAUAUGGCACGCAAGUUUCUACCGGGCACCGUAAAUGUCCGACUGGAGCCGUUCGGGCGGCUAUAAACAGACCUCAGGCCCGAAGCGUGGCGGCACCUGCCGCCGGUGGUAAAAAAGAUCGGAAGAGCACACGUCU | 1.35
4 | GGGUCGAAGUUGUAUAAUCGCGUGGAUAUGGCACGCAAGUUUCUACCGGGCACCGUAAAUGUCCGACUGGAGCCGUUCGGGCGGCUAUAAACAGACCUCAGGCCCGAAGCGUGGCGGCACCUGCCGCCGGUGGUAAAAAAGAUCGGAAGAGCACACGUCU | 1.48
5 | GGGUCGAAGUUGAAUAAUCGCGUGGAUAUGGCACGCAAGUUUCUACCGGGCACCGUAAAUGUCCGACUGGAGCCGUUCGGGCGGCUAUAAACAGACCUCAGGCCCGAAGCGUGGCGGCACCUGCCGCCGGUGGUAAAAAAGAUCGGAAGAGCACACGUCU | 1.2
6 | GGGUCGAAGUUCCAUAAUCGCGUGGAUAUGGCACGCAAGUUUCUACCGGGCACCGUAAAUGUCCGACUGGAGCCGUUCGGGCGGCUAUAAACAGACCUCAGGCCCGAAGCGUGGCGGCACCUGCCGCCGGUGGUAAAAAAGAUCGGAAGAGCACACGUCU | 2.94
7 | GGGUCGAAGUUACAUAAUCGCGUGGAUAUGGCACGCAAGUUUCUACCGGGCACCGUAAAUGUCCGACUGGAGCCGUUCGGGCGGCUAUAAACAGACCUCAGGCCCGAAGCGUGGCGGCACCUGCCGCCGGUGGUAAAAAAGAUCGGAAGAGCACACGUCU | 1.76
8 | GGGUCGAAGUUUCAUAAUCGCGUGGAUAUGGCACGCAAGUUUCUACCGGGCACCGUAAAUGUCCGACUGGAGCCGUUCGGGCGGCUAUAAACAGACCUCAGGCCCGAAGCGUGGCGGCACCUGCCGCCGGUGGUAAAAAAGAUCGGAAGAGCACACGUCU | 1.59
9 | GGGUCGAAGUUGCAUAAUCGCGUGGAUAUGGCACGCAAGUUUCUACCGGGCACCGUAAAUGUCCGACUGGAGCCGUUCGGGCGGCUAUAAACAGACCUCAGGCCCGAAGCGUGGCGGCACCUGCCGCCGGUGGUAAAAAAGAUCGGAAGAGCACACGUCU | 1.41
10 | GGGUCGAAAUUAAAUAAUCGCGUGGAUAUGGCACGCAAGUUUCUACCGGGCACCGUAAAUGUCCGACUGGAGCCGUUCGGGCGGCUAUAAACAGACCUCAGGCCCGAAGCGUGGCGGCACCUGCCGCCGGUGGUAAAAAAGAUCGGAAGAGCACACGUCU | 1.06
11 | GGGUCGAAAUUAUAUAAUCGCGUGGAUAUGGCACGCAAGUUUCUACCGGGCACCGUAAAUGUCCGACUGGAGCCGUUCGGGCGGCUAUAAACAGACCUCAGGCCCGAAGCGUGGCGGCACCUGCCGCCGGUGGUAAAAAAGAUCGGAAGAGCACACGUCU | 1.07
12 | GGGUCGAAAUUAGAUAAUCGCGUGGAUAUGGCACGCAAGUUUCUACCGGGCACCGUAAAUGUCCGACUGGAGCCGUUCGGGCGGCUAUAAACAGACCUCAGGCCCGAAGCGUGGCGGCACCUGCCGCCGGUGGUAAAAAAGAUCGGAAGAGCACACGUCU | 1.06
13 | GGGUCGAUUUGCUAUAAUCGCGUGGAUAUGGCACGCAAGUUUCUACCGGGCACCGUAAAUGUCCGACUGGAGCCGUUCGGGCGGCUAUAAACAGACCUCAGGCCCGAAGCGUGGCGGCACCUGCCGCCGGUGGUAAAAAAGAUCGGAAGAGCACACGUCU | 1.31
14 | GGGUCGAUUUGCAAUAAUCGCGUGGAUAUGGCACGCAAGUUUCUACCGGGCACCGUAAAUGUCCGACUGGAGCCGUUCGGGCGGCUAUAAACAGACCUCAGGCCCGAAGCGUGGCGGCACCUGCCGCCGGUGGUAAAAAAGAUCGGAAGAGCACACGUCU | 1.15
15 | GGGUCGAUUUGCGAUAAUCGCGUGGAUAUGGCACGCAAGUUUCUACCGGGCACCGUAAAUGUCCGACUGGAGCCGUUCGGGCGGCUAUAAACAGACCUCAGGCCCGAAGCGUGGCGGCACCUGCCGCCGGUGGUAAAAAAGAUCGGAAGAGCACACGUCU | 1.04
16 | GGGUCGAAGUUAAAUAAUCGCGUGGAUAUGGCACGCAAGUUUCUACCGGGCACCGUAAAUGUCCGACUGGAGCCGUUCGGGCGGCUAUAAACAGACCUCAGGCCCGAAGCGUGGCGGCACCUGCCGCCGGUGGUAAAAAAGAUCGGAAGAGCACACGUCU | 1.22
17 | GGGUCGAAGUUAUAUAAUCGCGUGGAUAUGGCACGCAAGUUUCUACCGGGCACCGUAAAUGUCCGACUGGAGCCGUUCGGGCGGCUAUAAACAGACCUCAGGCCCGAAGCGUGGCGGCACCUGCCGCCGGUGGUAAAAAAGAUCGGAAGAGCACACGUCU | 1.5
18 | GGGUCGAAGUUAGAUAAUCGCGUGGAUAUGGCACGCAAGUUUCUACCGGGCACCGUAAAUGUCCGACUGGAGCCGUUCGGGCGGCUAUAAACAGACCUCAGGCCCGAAGCGUGGCGGCACCUGCCGCCGGUGGUAAAAAAGAUCGGAAGAGCACACGUCU | 1.12

Row | Variant | aptazyme ON/OFF ratio
19 | GGGUCGAAAUUCCAUAAUCGCGUGGAUAUGGCACGCAAGUUUCUACCGGGCACCGUAAAUGUCCGACUGGAGCCGUUCGGGCGGCUAUAAACAGACCUCAGGCCCGAAGCGUGGCGGCACCUGCCGCCGGUGGUAAAAAAGAUCGGAAGAGCACACGUCU | 1.87
20 | GGGUCGAAAUUGUAUAAUCGCGUGGAUAUGGCACGCAAGUUUCUACCGGGCACCGUAAAUGUCCGACUGGAGCCGUUCGGGCGGCUAUAAACAGACCUCAGGCCCGAAGCGUGGCGGCACCUGCCGCCGGUGGUAAAAAAGAUCGGAAGAGCACACGUCU | 1.14
21 | GGGUCGAAAUUGAAUAAUCGCGUGGAUAUGGCACGCAAGUUUCUACCGGGCACCGUAAAUGUCCGACUGGAGCCGUUCGGGCGGCUAUAAACAGACCUCAGGCCCGAAGCGUGGCGGCACCUGCCGCCGGUGGUAAAAAAGAUCGGAAGAGCACACGUCU | 1.09
22 | GGGUCGAAAUUGGAUAAUCGCGUGGAUAUGGCACGCAAGUUUCUACCGGGCACCGUAAAUGUCCGACUGGAGCCGUUCGGGCGGCUAUAAACAGACCUCAGGCCCGAAGCGUGGCGGCACCUGCCGCCGGUGGUAAAAAAGAUCGGAAGAGCACACGUCU | 1.12
23 | GGGUCGAUUUGGUAUAAUCGCGUGGAUAUGGCACGCAAGUUUCUACCGGGCACCGUAAAUGUCCGACUGGAGCCGUUCGGGCGGCUAUAAACAGACCUCAGGCCCGAAGCGUGGCGGCACCUGCCGCCGGUGGUAAAAAAGAUCGGAAGAGCACACGUCU | 1.14
24 | GGGUCGAAGUUCAAUAAUCGCGUGGAUAUGGCACGCAAGUUUCUACCGGGCACCGUAAAUGUCCGACUGGAGCCGUUCGGGCGGCUAUAAACAGACCUCAGGCCCGAAGCGUGGCGGCACCUGCCGCCGGUGGUAAAAAAGAUCGGAAGAGCACACGUCU | 1.38
25 | GGGUCGAAGUUCGAUAAUCGCGUGGAUAUGGCACGCAAGUUUCUACCGGGCACCGUAAAUGUCCGACUGGAGCCGUUCGGGCGGCUAUAAACAGACCUCAGGCCCGAAGCGUGGCGGCACCUGCCGCCGGUGGUAAAAAAGAUCGGAAGAGCACACGUCU | 1.22
26 | GGGUCGAAGUUCUAUAAUCGCGUGGAUAUGGCACGCAAGUUUCUACCGGGCACCGUAAAUGUCCGACUGGAGCCGUUCGGGCGGCUAUAAACAGACCUCAGGCCCGAAGCGUGGCGGCACCUGCCGCCGGUGGUAAAAAAGAUCGGAAGAGCACACGUCU | 1.69
27 | GGGUCGAAGUUUGAUAAUCGCGUGGAUAUGGCACGCAAGUUUCUACCGGGCACCGUAAAUGUCCGACUGGAGCCGUUCGGGCGGCUAUAAACAGACCUCAGGCCCGAAGCGUGGCGGCACCUGCCGCCGGUGGUAAAAAAGAUCGGAAGAGCACACGUCU | 1.24
28 | GGGUCGAAGUUUAAUAAUCGCGUGGAUAUGGCACGCAAGUUUCUACCGGGCACCGUAAAUGUCCGACUGGAGCCGUUCGGGCGGCUAUAAACAGACCUCAGGCCCGAAGCGUGGCGGCACCUGCCGCCGGUGGUAAAAAAGAUCGGAAGAGCACACGUCU | 1.29
29 | GGGUCGAAGUUUUAUAAUCGCGUGGAUAUGGCACGCAAGUUUCUACCGGGCACCGUAAAUGUCCGACUGGAGCCGUUCGGGCGGCUAUAAACAGACCUCAGGCCCGAAGCGUGGCGGCACCUGCCGCCGGUGGUAAAAAAGAUCGGAAGAGCACACGUCU | 1.38
30 | GGGUCGAAAUUUCAUAAUCGCGUGGAUAUGGCACGCAAGUUUCUACCGGGCACCGUAAAUGUCCGACUGGAGCCGUUCGGGCGGCUAUAAACAGACCUCAGGCCCGAAGCGUGGCGGCACCUGCCGCCGGUGGUAAAAAAGAUCGGAAGAGCACACGUCU | 1.32
31 | GGGUCGAAAUUGCAUAAUCGCGUGGAUAUGGCACGCAAGUUUCUACCGGGCACCGUAAAUGUCCGACUGGAGCCGUUCGGGCGGCUAUAAACAGACCUCAGGCCCGAAGCGUGGCGGCACCUGCCGCCGGUGGUAAAAAAGAUCGGAAGAGCACACGUCU | 1.4
32 | GGGUCGAAAUUACAUAAUCGCGUGGAUAUGGCACGCAAGUUUCUACCGGGCACCGUAAAUGUCCGACUGGAGCCGUUCGGGCGGCUAUAAACAGACCUCAGGCCCGAAGCGUGGCGGCACCUGCCGCCGGUGGUAAAAAAGAUCGGAAGAGCACACGUCU | 1.46
33 | GGGUCGAUUUGUGAUAAUCGCGUGGAUAUGGCACGCAAGUUUCUACCGGGCACCGUAAAUGUCCGACUGGAGCCGUUCGGGCGGCUAUAAACAGACCUCAGGCCCGAAGCGUGGCGGCACCUGCCGCCGGUGGUAAAAAAGAUCGGAAGAGCACACGUCU | 1.3
34 | GGGUCGAUUUGUUAUAAUCGCGUGGAUAUGGCACGCAAGUUUCUACCGGGCACCGUAAAUGUCCGACUGGAGCCGUUCGGGCGGCUAUAAACAGACCUCAGGCCCGAAGCGUGGCGGCACCUGCCGCCGGUGGUAAAAAAGAUCGGAAGAGCACACGUCU | 1.08
35 | GGGUCGAUUUGUAAUAAUCGCGUGGAUAUGGCACGCAAGUUUCUACCGGGCACCGUAAAUGUCCGACUGGAGCCGUUCGGGCGGCUAUAAACAGACCUCAGGCCCGAAGCGUGGCGGCACCUGCCGCCGGUGGUAAAAAAGAUCGGAAGAGCACACGUCU | 1.35
36 | GGGUCGAUUUGUCAUAAUCGCGUGGAUAUGGCACGCAAGUUUCUACCGGGCACCGUAAAUGUCCGACUGGAGCCGUUCGGGCGGCUAUAAACAGACCUCAGGCCCGAAGCGUGGCGGCACCUGCCGCCGGUGGUAAAAAAGAUCGGAAGAGCACACGUCU | 1.52
